# Test results as given in patent US20130157935A1 (ZEALAND PHARMA A S, published 2013).
# Starred links: 1 amine or outer side, 2 acyl side, 3 side chain; linkers in the order of their positions; H or OH if unused. Groups on a side chain read outwards from the residue. *: point of attachment. γGlu = O=C(O)[C@H](CCC(=O)[*:2])N[*:1]; Palmitoyl = CCCCCCCCCCCCCCCC(=O)*
# B1: Compound 4: H-HSQGTFTSDYSKYLDERRAKDFIEWLL-K(Hexadecanoyl-isoGlu)-A-NH2 (peptide)
# peptide: HSQGTFTSDYSKYLDERRAKDFIEWLLXA
# HELM: PEPTIDE1{H.S.Q.G.T.F.T.S.D.Y.S.K.Y.L.D.E.R.R.A.K.D.F.I.E.W.L.L.K.A.[am]}|PEPTIDE2{[CCCCCCCCCCCCCCCC(=O)[*:2]].[gGlu]}$PEPTIDE1,PEPTIDE2,28:R3-2:R2$$$V2.0
# SMILES: CCCCCCCCCCCCCCCC(=O)N[C@@H](CCC(=O)NCCCC[C@H](NC(=O)[C@H](CC(C)C)NC(=O)[C@H](CC(C)C)NC(=O)[C@H](Cc1c[nH]c2ccccc12)NC(=O)[C@H](CCC(=O)O)NC(=O)[C@@H](NC(=O)[C@H](Cc1ccccc1)NC(=O)[C@H](CC(=O)O)NC(=O)[C@H](CCCCN)NC(=O)[C@H](C)NC(=O)[C@H](CCCNC(=N)N)NC(=O)[C@H](CCCNC(=N)N)NC(=O)[C@H](CCC(=O)O)NC(=O)[C@H](CC(=O)O)NC(=O)[C@H](CC(C)C)NC(=O)[C@H](Cc1ccc(O)cc1)NC(=O)[C@H](CCCCN)NC(=O)[C@H](CO)NC(=O)[C@H](Cc1ccc(O)cc1)NC(=O)[C@H](CC(=O)O)NC(=O)[C@H](CO)NC(=O)[C@@H](NC(=O)[C@H](Cc1ccccc1)NC(=O)[C@@H](NC(=O)CNC(=O)[C@H](CCC(N)=O)NC(=O)[C@H](CO)NC(=O)[C@@H](N)Cc1c[nH]cn1)[C@@H](C)O)[C@@H](C)O)[C@@H](C)CC)C(=O)N[C@@H](C)C(N)=O)C(=O)O
# B2: Compound 5: H-HSQGTFTSDYSKYLD-K(Hexadecanoyl-isoGlu)-RRAKDFIEWLLSA-NH2 (peptide)
# peptide: HSQGTFTSDYSKYLDXRRAKDFIEWLLSA
# HELM: PEPTIDE1{H.S.Q.G.T.F.T.S.D.Y.S.K.Y.L.D.K.R.R.A.K.D.F.I.E.W.L.L.S.A.[am]}|PEPTIDE2{[CCCCCCCCCCCCCCCC(=O)[*:2]].[gGlu]}$PEPTIDE1,PEPTIDE2,16:R3-2:R2$$$V2.0
# SMILES: CCCCCCCCCCCCCCCC(=O)N[C@@H](CCC(=O)NCCCC[C@H](NC(=O)[C@H](CC(=O)O)NC(=O)[C@H](CC(C)C)NC(=O)[C@H](Cc1ccc(O)cc1)NC(=O)[C@H](CCCCN)NC(=O)[C@H](CO)NC(=O)[C@H](Cc1ccc(O)cc1)NC(=O)[C@H](CC(=O)O)NC(=O)[C@H](CO)NC(=O)[C@@H](NC(=O)[C@H](Cc1ccccc1)NC(=O)[C@@H](NC(=O)CNC(=O)[C@H](CCC(N)=O)NC(=O)[C@H](CO)NC(=O)[C@@H](N)Cc1c[nH]cn1)[C@@H](C)O)[C@@H](C)O)C(=O)N[C@@H](CCCNC(=N)N)C(=O)N[C@@H](CCCNC(=N)N)C(=O)N[C@@H](C)C(=O)N[C@@H](CCCCN)C(=O)N[C@@H](CC(=O)O)C(=O)N[C@@H](Cc1ccccc1)C(=O)N[C@H](C(=O)N[C@@H](CCC(=O)O)C(=O)N[C@@H](Cc1c[nH]c2ccccc12)C(=O)N[C@@H](CC(C)C)C(=O)N[C@@H](CC(C)C)C(=O)N[C@@H](CO)C(=O)N[C@@H](C)C(N)=O)[C@@H](C)CC)C(=O)O
# B3: Compound 6: H-HSQGTFTSDYSKYLDE-K(Hexadecanoyl-isoGlu)-RAKDFIEWLLSA-NH2 (peptide)
# peptide: H-HSQGTFTSDYSKYLDEK([γGlu-Palmitoyl])RAKDFIEWLLSA-NH2
# B4: Compound 3: H-HSQGTFTSDYSKYLDERRA-K(Hexadecanoyl-isoGlu)-DFIEWLLSA-NH2 (peptide)
# peptide: HSQGTFTSDYSKYLDERRAXDFIEWLLSA
# modifications: K(Hexadecanoyl-isoGlu) at position 20; C-terminal amide (NH2)
# B5: Compound 2: H-HSQGTFTSDYSKYLDERRAKDFIEWL-K(Hexadecanoyl-isoGlu)-SA-NH2 (peptide)
# peptide: HSQGTFTSDYSKYLDERRAKDFIEWLXSA
# HELM: PEPTIDE1{H.S.Q.G.T.F.T.S.D.Y.S.K.Y.L.D.E.R.R.A.K.D.F.I.E.W.L.K.S.A.[am]}|PEPTIDE2{[CCCCCCCCCCCCCCCC(=O)[*:2]].[gGlu]}$PEPTIDE1,PEPTIDE2,27:R3-2:R2$$$V2.0
# SMILES: CCCCCCCCCCCCCCCC(=O)N[C@@H](CCC(=O)NCCCC[C@H](NC(=O)[C@H](CC(C)C)NC(=O)[C@H](Cc1c[nH]c2ccccc12)NC(=O)[C@H](CCC(=O)O)NC(=O)[C@@H](NC(=O)[C@H](Cc1ccccc1)NC(=O)[C@H](CC(=O)O)NC(=O)[C@H](CCCCN)NC(=O)[C@H](C)NC(=O)[C@H](CCCNC(=N)N)NC(=O)[C@H](CCCNC(=N)N)NC(=O)[C@H](CCC(=O)O)NC(=O)[C@H](CC(=O)O)NC(=O)[C@H](CC(C)C)NC(=O)[C@H](Cc1ccc(O)cc1)NC(=O)[C@H](CCCCN)NC(=O)[C@H](CO)NC(=O)[C@H](Cc1ccc(O)cc1)NC(=O)[C@H](CC(=O)O)NC(=O)[C@H](CO)NC(=O)[C@@H](NC(=O)[C@H](Cc1ccccc1)NC(=O)[C@@H](NC(=O)CNC(=O)[C@H](CCC(N)=O)NC(=O)[C@H](CO)NC(=O)[C@@H](N)Cc1c[nH]cn1)[C@@H](C)O)[C@@H](C)O)[C@@H](C)CC)C(=O)N[C@@H](CO)C(=O)N[C@@H](C)C(N)=O)C(=O)O
# B6: Compound 7: H-H-Aib-QGTFTSDYSKYLDE-K(Hexadecanoyl-isoGlu)-RAKDFIEWLLSA-NH2 (peptide)
# peptide: HXQGTFTSDYSKYLDEXRAKDFIEWLLSA
# HELM: PEPTIDE1{H.[Aib].Q.G.T.F.T.S.D.Y.S.K.Y.L.D.E.K.R.A.K.D.F.I.E.W.L.L.S.A.[am]}|PEPTIDE2{[CCCCCCCCCCCCCCCC(=O)[*:2]].[gGlu]}$PEPTIDE1,PEPTIDE2,17:R3-2:R2$$$V2.0
# SMILES: CCCCCCCCCCCCCCCC(=O)N[C@@H](CCC(=O)NCCCC[C@H](NC(=O)[C@H](CCC(=O)O)NC(=O)[C@H](CC(=O)O)NC(=O)[C@H](CC(C)C)NC(=O)[C@H](Cc1ccc(O)cc1)NC(=O)[C@H](CCCCN)NC(=O)[C@H](CO)NC(=O)[C@H](Cc1ccc(O)cc1)NC(=O)[C@H](CC(=O)O)NC(=O)[C@H](CO)NC(=O)[C@@H](NC(=O)[C@H](Cc1ccccc1)NC(=O)[C@@H](NC(=O)CNC(=O)[C@H](CCC(N)=O)NC(=O)C(C)(C)NC(=O)[C@@H](N)Cc1c[nH]cn1)[C@@H](C)O)[C@@H](C)O)C(=O)N[C@@H](CCCNC(=N)N)C(=O)N[C@@H](C)C(=O)N[C@@H](CCCCN)C(=O)N[C@@H](CC(=O)O)C(=O)N[C@@H](Cc1ccccc1)C(=O)N[C@H](C(=O)N[C@@H](CCC(=O)O)C(=O)N[C@@H](Cc1c[nH]c2ccccc12)C(=O)N[C@@H](CC(C)C)C(=O)N[C@@H](CC(C)C)C(=O)N[C@@H](CO)C(=O)N[C@@H](C)C(N)=O)[C@@H](C)CC)C(=O)O
# Target: human glucagon-like peptide 1 receptor (GLP-1 R) (human, UniProt P43220 24-463)
# Experiment: cell-based or functional assay
row,"GLP-1R EC50 (nM), cAMP formation in HEK293 cells expressing human GLP-1-R",Binder
1,0.31 nM,B1
2,0.35 nM,B2
3,0.13 nM,B3
4,0.64 nM,B4
5,3.09 nM,B5
6,0.1 nM,B6

# Target: human glucagon receptor (Glucagon-R) (human, UniProt P47871 26-477)
# Sequence (P47871 26-477): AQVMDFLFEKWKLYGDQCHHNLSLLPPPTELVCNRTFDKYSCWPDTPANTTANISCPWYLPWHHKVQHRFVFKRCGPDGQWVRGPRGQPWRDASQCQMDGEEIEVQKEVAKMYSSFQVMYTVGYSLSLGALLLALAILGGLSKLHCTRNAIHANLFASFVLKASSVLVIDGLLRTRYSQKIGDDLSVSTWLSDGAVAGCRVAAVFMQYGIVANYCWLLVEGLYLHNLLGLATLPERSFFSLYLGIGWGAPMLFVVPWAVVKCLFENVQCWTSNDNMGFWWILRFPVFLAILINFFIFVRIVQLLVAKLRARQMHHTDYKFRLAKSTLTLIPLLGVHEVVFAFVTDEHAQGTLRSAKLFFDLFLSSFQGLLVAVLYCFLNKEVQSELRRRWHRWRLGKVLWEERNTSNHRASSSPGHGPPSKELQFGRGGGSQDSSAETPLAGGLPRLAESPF
# Experiment: cell-based or functional assay
row,"GluR EC50 (nM), cAMP formation in HEK293 cells expressing human Glucagon-R",Binder
1,0.25 nM,B1
2,0.19 nM,B2
3,0.6 nM,B4
4,0.81 nM,B5
5,0.16 nM,B6
